Measurements reported in article PMC7468457.

How the values were obtained:
[1] = target: AT1R-Rluc (AngII type 1 receptor fused to Renilla luciferase) (human) (UniProt P30556)
[2] = target: AT1R-Rluc (AngII type 1 receptor fused to Renilla luciferase) (human) (UniProt P30556); remark: listed apart in the source
[3] = target: AT1R-Rluc (AngII type 1 receptor fused to Renilla luciferase) (human) (UniProt P30556); remark: listed apart in the source
[4] = target: AT1R-Rluc (AngII type 1 receptor fused to Renilla luciferase) (human) (UniProt P30556); remark: listed apart in the source
[5] = target: AT1R-Rluc (AngII type 1 receptor fused to Renilla luciferase) (human) (UniProt P30556); remark: listed apart in the source
[6] = target: AT1R-Rluc (AngII type 1 receptor fused to Renilla luciferase) (human) (UniProt P30556); remark: listed apart in the source

UniProt P30556, sequence (P30556 whole entry, the tested form may be a part): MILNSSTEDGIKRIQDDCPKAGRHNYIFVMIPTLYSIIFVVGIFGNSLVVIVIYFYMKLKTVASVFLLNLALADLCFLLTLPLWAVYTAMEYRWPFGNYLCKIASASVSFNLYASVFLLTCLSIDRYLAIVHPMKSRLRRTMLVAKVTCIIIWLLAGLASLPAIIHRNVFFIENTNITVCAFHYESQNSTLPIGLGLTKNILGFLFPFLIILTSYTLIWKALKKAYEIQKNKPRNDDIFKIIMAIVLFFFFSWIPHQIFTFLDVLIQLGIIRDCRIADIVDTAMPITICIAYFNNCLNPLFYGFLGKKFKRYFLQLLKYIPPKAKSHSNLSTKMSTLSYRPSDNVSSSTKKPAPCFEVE

BRET increase between AT1R-Rluc and Venus-Gαq by thrombin 1 U/ml with PAR1 overexpression, dose-response to AngII (Figure 1D) (% of AngII response) [1]: 70 to 75
BRET increase between AT1R-Rluc and yPET-β-arrestin 2 by thrombin 1 U/ml with PAR1 overexpression (Figure 1F) (% of AngII response) [1]: 25
real-time BRET between AT1R-Rluc and Venus-Gαq, PAR1 overexpressed, AngII 10 nM and thrombin 1 U/ml together (% of AngII response) [2]: 207
real-time BRET between AT1R-Rluc and Venus-Gαq, PAR1 overexpressed, thrombin 1 U/ml alone (% of AngII response) [2]: 79
real-time BRET between AT1R-Rluc and yPET-β-arrestin 2, PAR1 overexpressed, AngII 10 nM and thrombin 1 U/ml together (% of AngII response) [2]: 218
real-time BRET between AT1R-Rluc and yPET-β-arrestin 2, PAR1 overexpressed, thrombin 1 U/ml alone (% of AngII response) [2]: 44
sequential real-time BRET between AT1R-Rluc and yPET-β-arrestin 2, PAR1 overexpressed, vehicle then thrombin 1 U/ml (% of AngII response) [3]: 50
Emax of thrombin dose-response, BRET between AT1R-Rluc and Venus-Gαq, PAR1 overexpressed, thrombin alone; 10 nM AngII alone taken as 100% [4]: 211%
Emax of thrombin dose-response, BRET between AT1R-Rluc and Venus-Gαq, PAR1 overexpressed, with 10 nM AngII [4]: 342%
Emax of thrombin dose-response, BRET between AT1R-Rluc and yPET-β-arrestin 2, PAR1 overexpressed, thrombin alone; 10 nM AngII alone taken as 100% [4]: 102%
Emax of thrombin dose-response, BRET between AT1R-Rluc and yPET-β-arrestin 2, PAR1 overexpressed, with 10 nM AngII [4]: 299%
AT1R endosomal trafficking (BRET between AT1R-Rluc and Venus-Rab5), PAR1 overexpressed and co-activated [5]: 45%
AT1R endosomal trafficking (BRET between AT1R-Rluc and Venus-Rab7), PAR1 overexpressed and co-activated [5]: 41%
IP1 production in HEK293 cells coexpressing AT1R-Rluc and PAR1, AngII 10 nM and thrombin 1 U/ml together [6]: 160%
B1: PAR1 (untagged protease-activated receptor 1) (receptor)
chain: SFLLRNPNDKYEPFWEDEEKNESGLTEYRLVSINKSSPLQKQLPAFISEDASGYLTSSWLTLFVPSVYTGVFVVSLPLNIMAIVVFILKMKVKKPAVVYMLHLATADVLFVSVLPFKISYYFSGSDWQFGSELCRFVTAAFYCNMYASILLMTVISIDRFLAVVYPMQSLSWRTLGRASFTCLAIWALAIAGVVPLLLKEQTIQVPGLNITTCHDVLNETLLEGYYAYYFSAFSAVFFFVPLIISTVCYVSIIRCLSSSAVANRSKKSRALFLSAAVFCIFIICFGPTNVLLIAHYSFLSHTSTTEAAYFAYLLCVCVSSISCCIDPLIYYYASSECQRYVYSILCCKESSDPSSYNSSGQLMASKMDTCSSNLNNSIYKKLLT
